# Results published in patent publication US20210155676A1 (Gilead, published 2021).
# Changes are numbered by the printed parent chain.
# B1: PGT121.56 hIgG1/hLambda (antibody)
# heavy: QMQLQESGPGLVKPSETLSLTCSVSGASISDSYWSWIRRSPGKGLEWIGYVHKSGDTNYSPSLKSRVNLSLDTSKNQVSLSLVAATAADSGKYYCARTLHGRRIYGIVAFNEWFTYFYMDVWGNGTQVTVSSASTKGPSVFPLAPSSKSTSGGTAALGCLVKDYFPEPVTVSWNSGALTSGVHTFPAVLQSSGLYSLSSVVTVPSSSLGTQTYICNVNHKPSNTKVDKKVEPKSCDKTHTCPPCPAPELLAGPDVFLFPPKPKDTLMISRTPEVTCVVVDVSHEDPEVKFNWYVDGVEVHNAKTKPREEQYNSTYRVVSVLTVLHQDWLNGKEYKCKVSNKALPLPEEKTISKAKGQPREPQVYTLPPSREEMTKNQVSLTCLVKGFYPSDIAVEWESNGQPENNYKTTPPVLDSDGSFFLYSKLTVDKSRWQQGNVFSCSVLHEALHSHYTQKSLSLSPGK
# light: not shown
# B2: PGT121.60 hIgG1/hLambda (antibody)
# heavy: B1 heavy with S60N, N68H, V83T, A84G, A85V, N124T
# light: not shown
# Tests used:
# gp140 SHIV SF162P3 = molecular target: T1, gp140 SHIV SF162P3 (SHIV SF162P3); experiment: ELISA, gp140 coated
# T1 construct: domain: gp140; also called SHIV gp140
# Description: (§1) The in vitro binding characteristics of antibodies for both the antigen (HIV gp120) and Fc binding receptors (FcγRs, FcRn) were determined using an Enzyme-Linked Immunosorbant Assay (ELISA).
# gp140 BaL = molecular target: T2, gp140 BaL (HIV-1 strain BaL); experiment: ELISA, gp140 coated
# T2 construct: domain: gp140
# Description: as §1
# [1] = molecular target: HIV-1 92US657 Env (on virus) (HIV-1 isolate 92US657); experiment: cell-based or functional assay
# [2] = molecular target: HIV-1 92US712 Env (on virus) (HIV-1 isolate 92US712); experiment: cell-based or functional assay
# [3] = molecular target: HIV-1 93HT593 Env (on virus) (HIV-1 isolate 93HT593); experiment: cell-based or functional assay
# [4] = molecular target: HIV-1 92US727 Env (on virus) (HIV-1 isolate 92US727); experiment: cell-based or functional assay
# HIV-1 BaL Env (on virus) = HIV-1 BaL Env (on virus) (HIV-1 strain BaL); experiment: cell-based or functional assay
# [5] = molecular target: HIV-1 Env of subtype B virus 15-101757 (HIV-1); experiment: cell-based or functional assay
# [6] = molecular target: HIV-1 Env of subtype B virus 15-124962 (HIV-1); experiment: cell-based or functional assay
# [7] = molecular target: HIV-1 Env of subtype B virus 15-124914 (HIV-1); experiment: cell-based or functional assay
# [8] = molecular target: HIV-1 Env of subtype B virus 15-124964 (HIV-1); experiment: cell-based or functional assay
# [9] = molecular target: HIV-1 Env of subtype B virus 15-102514 (HIV-1); experiment: cell-based or functional assay
# [10] = molecular target: HIV-1 Env of subtype B virus 15-124934 (HIV-1); experiment: cell-based or functional assay
# [11] = molecular target: HIV-1 Env of subtype B virus 15-124950 (HIV-1); experiment: cell-based or functional assay
# [12] = molecular target: HIV-1 Env of subtype B virus 15-124918 (HIV-1); experiment: cell-based or functional assay
# [13] = molecular target: HIV-1 Env of subtype B virus 15-124987 (HIV-1); experiment: cell-based or functional assay
# [14] = molecular target: HIV-1 Env of subtype B virus 15-101608 (HIV-1); experiment: cell-based or functional assay
# [15] = molecular target: HIV-1 Env of subtype B virus 15-124986 (HIV-1); experiment: cell-based or functional assay
# [16] = molecular target: HIV-1 Env of subtype B virus 15-124970 (HIV-1); experiment: cell-based or functional assay
# [17] = molecular target: HIV-1 Env of subtype B virus 15-124906 (HIV-1); experiment: cell-based or functional assay
# [18] = molecular target: HIV-1 Env of subtype B virus 15-124963 (HIV-1); experiment: cell-based or functional assay
# [19] = molecular target: HIV-1 Env of subtype B virus 15-124975 (HIV-1); experiment: cell-based or functional assay
# [20] = molecular target: HIV-1 Env of subtype B virus 15-124904 (HIV-1); experiment: cell-based or functional assay
# Human FcRn [21] = molecular target: T3, Human FcRn (human, UniProt P55899 24-297; P61769 21-119); experiment: ELISA, pH 7.0/6.0 ratio relative to PGT121
# T3 construct: also called neonatal Fc receptor
# T3 sequence (P55899 24-297 limits assumed, chain 1 of 2): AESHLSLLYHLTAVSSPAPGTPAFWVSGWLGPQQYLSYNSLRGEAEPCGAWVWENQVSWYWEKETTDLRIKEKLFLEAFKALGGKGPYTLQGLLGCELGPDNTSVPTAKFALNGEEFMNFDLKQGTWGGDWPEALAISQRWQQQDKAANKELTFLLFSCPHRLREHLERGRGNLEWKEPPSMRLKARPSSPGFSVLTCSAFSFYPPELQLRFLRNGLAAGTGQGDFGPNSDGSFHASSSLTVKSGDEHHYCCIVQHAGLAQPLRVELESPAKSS
# T3 sequence (P61769 21-119 limits assumed, chain 2 of 2): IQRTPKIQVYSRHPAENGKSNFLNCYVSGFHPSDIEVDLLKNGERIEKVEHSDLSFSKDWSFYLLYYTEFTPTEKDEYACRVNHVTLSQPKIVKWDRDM
# Description: (§2) The binding of antibodies to FcRn of various species at different pHs was determined. A 96-well Maxisorp plate was coated with 100 ul of 5 μg/ml FcRn. The plate was incubated overnight at 4° C., and then blocked with 4% skim milk for 2 hr at room temperature after washing 3 times with 0.05% Tween 20 washing buffer. The plate was incubated with 3 fold serial dilution of primary antibody for 1 hr at room temperature. The plate was then washed 3 times and 100 of Fab-anti-human Fab-HRP or Goat anti-human IgG-HRP secondary antibody diluted in 4% skimmed milk was added. Plates were then incubated 50 min at room temperature, washed three times, and 100 μL fresh TMB substrate was added. Plates were developed for 3 minutes on bench with gentle shaking. Plate was quenched with 100 μL 1M HCl, shaken briefly, read at A450 on a spectramax m5 plate reader.
# [22] = molecular target: human FcγRIIIA on primary NK effector cells (human, UniProt P08637 17-254); experiment: cell-based or functional assay
# human FcγRIIIA on primary NK effector cells, sequence (P08637 17-254): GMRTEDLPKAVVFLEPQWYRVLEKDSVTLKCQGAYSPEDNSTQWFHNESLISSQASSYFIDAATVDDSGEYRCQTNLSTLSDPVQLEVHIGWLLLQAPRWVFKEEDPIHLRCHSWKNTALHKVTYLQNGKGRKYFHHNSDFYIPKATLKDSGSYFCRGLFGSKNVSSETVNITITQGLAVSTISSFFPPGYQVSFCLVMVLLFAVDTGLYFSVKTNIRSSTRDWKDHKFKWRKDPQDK
# Human FcRn [23] = molecular target: T3, Human FcRn; experiment: ELISA, FcRn coated on plate, pH 6.0
# Description: as §2
# [24] = molecular target: HIV-1 Env of subtype B isolate MGRM-B-105 (HIV-1); experiment: cell-based or functional assay
# [25] = molecular target: HIV-1 Env of subtype B isolate MGRM-B-115 (HIV-1); experiment: cell-based or functional assay
# [26] = molecular target: HIV-1 Env of subtype B isolate MGRM-B-132 (HIV-1); experiment: cell-based or functional assay
# [27] = molecular target: HIV-1 Env of subtype B isolate MGRM-B-136 (HIV-1); experiment: cell-based or functional assay
# [28] = molecular target: HIV-1 Env of subtype B isolate MGRM-B-111 (HIV-1); experiment: cell-based or functional assay
# [29] = molecular target: HIV-1 Env of subtype B isolate MGRM-B-106 (HIV-1); experiment: cell-based or functional assay
# [30] = molecular target: HIV-1 Env of subtype B isolate MGRM-B-112 (HIV-1); experiment: cell-based or functional assay
# [31] = molecular target: HIV-1 Env of subtype B isolate MGRM-B-118 (HIV-1); experiment: cell-based or functional assay
# [32] = molecular target: HIV-1 Env of subtype B isolate MGRM-B-110 (HIV-1); experiment: cell-based or functional assay
# Human FcRn [33] = molecular target: T3, Human FcRn; experiment: ELISA, ratio of EC50 at pH 7.0 to EC50 at pH 6.0
# Description: as §2
# Human FcRn [34] = molecular target: T3, Human FcRn; experiment: ELISA, FcRn coated on plate, pH 7.0
# Description: as §2
binder,measurement,setting,value
B1,EC50,gp140 SHIV SF162P3,480 pM
same,EC50,gp140 BaL,590 pM
same,"neutralization IC50, HIV-1 US657, CEM.NKr.CCR5.Luc assay",[1],0.142 µg/mL
same,"neutralization IC50, HIV-1 US712, CEM.NKr.CCR5.Luc assay",[2],0.019 µg/mL
same,"neutralization IC50, HIV-1 HT593, CEM.NKr.CCR5.Luc assay",[3],0.164 µg/mL
same,"neutralization IC50, HIV-1 US727, CEM.NKr.CCR5.Luc assay",[4],0.011 µg/mL
same,"neutralization IC50, HIV-1 BaL, CEM.NKr.CCR5.Luc assay",HIV-1 BaL Env (on virus),0.02 µg/mL
B2,PGT121 IC50/PGT121.60 IC50,[5],4.7 fold
same,neutralization IC50,[5],0.0132 µg/mL
same,PGT121 IC50/PGT121.60 IC50,[6],3.4 fold
same,neutralization IC50,[6],0.0277 µg/mL
same,PGT121 IC50/PGT121.60 IC50,[7],3 fold
same,neutralization IC50,[7],0.002 µg/mL
same,PGT121 IC50/PGT121.60 IC50,[8],3.5 fold
same,neutralization IC50,[8],0.0026 µg/mL
same,PGT121 IC50/PGT121.60 IC50,[9],3.5 fold
same,neutralization IC50,[9],0.0128 µg/mL
same,PGT121 IC50/PGT121.60 IC50,[10],12.1 fold
same,neutralization IC50,[10],0.797 µg/mL
same,PGT121 IC50/PGT121.60 IC50,[11],3 fold
same,neutralization IC50,[11],0.0995 µg/mL
same,PGT121 IC50/PGT121.60 IC50,[12],3 fold
same,neutralization IC50,[12],0.0018 µg/mL
same,PGT121 IC50/PGT121.60 IC50,[13],3.1 fold
same,neutralization IC50,[13],0.0163 µg/mL
same,PGT121 IC50/PGT121.60 IC50,[14],3.6 fold
same,neutralization IC50,[14],1.84 µg/mL
same,PGT121 IC50/PGT121.60 IC50,[15],3.2 fold
same,neutralization IC50,[15],0.0015 µg/mL
same,PGT121 IC50/PGT121.60 IC50,[16],3.9 fold
same,neutralization IC50,[16],0.0285 µg/mL
same,PGT121 IC50/PGT121.60 IC50,[17],5.3 fold
same,neutralization IC50,[17],0.0103 µg/mL
same,PGT121 IC50/PGT121.60 IC50,[18],8.2 fold
same,neutralization IC50,[18],2.05 µg/mL
same,PGT121 IC50/PGT121.60 IC50,[19],5.5 fold
same,neutralization IC50,[19],0.105 µg/mL
same,PGT121 IC50/PGT121.60 IC50,[20],3.1 fold
same,neutralization IC50,[20],0.0121 µg/mL
same,Fold vs PGT121,Human FcRn [21],11 fold
same,"ADCC AUC, NK donor A4813, primary CD4+ T cells infected with HT593",[22],185
same,"ADCC AUC, NK donor A4813, primary CD4+ T cells infected with US657",[22],220
same,"ADCC EC50, NK donor A4813, primary CD4+ T cells infected with HT593",[22],700 pM
same,"ADCC EC50, NK donor A4813, primary CD4+ T cells infected with US657",[22],1200 pM
same,"ADCC Emax, NK donor A4813, primary CD4+ T cells infected with HT593",[22],67%
same,"ADCC Emax, NK donor A4813, primary CD4+ T cells infected with US657",[22],72%
same,EC50,Human FcRn [23],220 pM
same,PGT121 IC50/PGT121.60 IC50,[24],2.9 fold
same,neutralization IC50,[24],0.0076 µg/mL
same,PGT121 IC50/PGT121.60 IC50,[25],1.7 fold
same,neutralization IC50,[25],0.141 µg/mL
same,PGT121 IC50/PGT121.60 IC50,[26],1.2 fold
same,neutralization IC50,[26],0.0077 µg/mL
same,PGT121 IC50/PGT121.60 IC50,[27],1.2 fold
same,neutralization IC50,[27],0.0071 µg/mL
same,PGT121 IC50/PGT121.60 IC50,[28],2.2 fold
same,neutralization IC50,[28],0.955 µg/mL
same,PGT121 IC50/PGT121.60 IC50,[29],4.1 fold
same,neutralization IC50,[29],0.001 µg/mL
same,PGT121 IC50/PGT121.60 IC50,[30],2.5 fold
same,neutralization IC50,[30],0.0058 µg/mL
same,PGT121 IC50/PGT121.60 IC50,[31],0.7 fold
same,neutralization IC50,[31],3.31 µg/mL
same,PGT121 IC50/PGT121.60 IC50,[32],3.3 fold
same,neutralization IC50,[32],0.0113 µg/mL
same,Ratio pH 7.0/6.0,Human FcRn [33],355
same,EC50,Human FcRn [34],78000 pM
